Assay results taken from publication PMC4948679.
Values joined by “and” are separate entries in the source; they are usually repeats but may differ in a detail not shown here. Equal entries are not always repeated.

Molecular target: Ab2/3H6, murine/wild-type anti-idiotypic antibody (wt3H6) (mouse (developed from mouse hybridoma))
Assay: BLI

B1: broadly neutralizing anti-HIV-1 antibody 2F5 (antibody, V domains shown)
VH: RITLKESGPPLVKPTQTLTLTCSFSGFSLSDFGVGVGWIRQPPGKALEWLAIIYSDDDKRYSPSLNTRLTITKDTSKNQVVLVMTRVSPVDTATYFCAHRRGPTTLFGVPIARGPVNAMDVWGQGITVTISS
VL: ALQLTQSPSSLSASVGDRITITCRASQGVTSALAWYRQKPGSPPQLLIYDASSLESGVPSRFSGSGSGTEFTLTISTLRPEDFATYYCQQLHFYPHTFGGGTRVDVR
For B1, the response level was 3.5 nm and 3.4 nm.
